IntAct's records for PubMed 22705394

B1: Ras-related protein Rab-21 (Homo sapiens), Q9UL25 (parent)
chain: MAAAGGGGGGAAAAGRAYSFKVVLLGEGCVGKTSLVLRYCENKFNDKHITTLQASFLTKKLNIGGKRVNLAIWDTAGQERFHALGPIYYRDSNGAILVYDITDEDSFQKVKNWVKELRKMLGNEICLCIVGNKIDLEKERHVSIQEAESYAESVGAKHYHTSAKQNKGIEELFLDLCKRMIETAQVDERAKGNGSSQPGTARRGVQIIDDEPQAQTSGGGCCSSG

Variants of: B1
Conditions: with macf1_human MACF1, Q9UPN3

Variant	effect of a mutation on the interaction
MAAAGGGGGGAAAAGRAYSFKVVLLGEGCVGKNSLVLRYCENKFNDKHITTLQASFLTKKLNIGGKRVNLAIWDTAGQERFHALGPIYYRDSNGAILVYDITDEDSFQKVKNWVKELRKMLGNEICLCIVGNKIDLEKERHVSIQEAESYAESVGAKHYHTSAKQNKGIEELFLDLCKRMIETAQVDERAKGNGSSQPGTARRGVQIIDDEPQAQTSGGGCCSSG [T33N]	decreasing interaction

Variants of: B1
Conditions: with MACF1, Q9UPN3-1

Variant	effect of a mutation on the interaction
MAAAGGGGGGAAAAGRAYSFKVVLLGEGCVGKNSLVLRYCENKFNDKHITTLQASFLTKKLNIGGKRVNLAIWDTAGQERFHALGPIYYRDSNGAILVYDITDEDSFQKVKNWVKELRKMLGNEICLCIVGNKIDLEKERHVSIQEAESYAESVGAKHYHTSAKQNKGIEELFLDLCKRMIETAQVDERAKGNGSSQPGTARRGVQIIDDEPQAQTSGGGCCSSG [T33N]	decreasing interaction
